Test results taken from patent publication US20210155689A1 (SHANGHAI PHARMAEXPLORER, published 2021).

Molecular target: LAG-3-hFc protein (human LAG-3 extracellular region with hFc tag) (human) (UniProt P18627)
Assay: FACS, inhibition of LAG-3-hFc binding to MHC II on Raji cells, antibody 7.407 nM

- Inhibition rate (%): 8.8%
Substance: hIgG control (antibody)
